Laboratory results from the supplement of paper PMC10065799, “High-throughput profiling of sequence recognition by tyrosine kinases and SH2 domains using bacterial peptide display” (eLife, 2023).

What was measured:
SHP2-C SH2 = assay: SH2 binding enrichment of the phosphorylated peptide, bacterial display (enrichment ratio); higher = better substrate or ligand; peptides without Tyr show the background
c-Src SH2 = assay: as above
Grb2 SH2 = Grb2 SH2 (UniProt P62993); assay: as above
Hck = Hck (UniProt P08631); assay: phosphorylation enrichment, bacterial display (enrichment ratio); higher = better substrate or ligand; peptides without Tyr show the background
c-Abl (mouse) = assay: as above
c-Src = assay: as above
Fer (mouse) = assay: as above
EPHB2 = EPHB2 (UniProt P29323); assay: as above
Fes = Fes (UniProt P07332); assay: as above
MERTK = MERTK (UniProt Q12866); assay: as above
FGFR3 = FGFR3 (UniProt P22607); assay: as above
FGFR1 = FGFR1 (UniProt P11362); assay: as above
EPHB1 = EPHB1 (UniProt P54762); assay: as above
Fyn = Fyn (UniProt P06241); assay: as above
AncSZ = assay: as above
Jak2 = Jak2 (UniProt O60674); assay: as above
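Throughout, for SH2 binding enrichment of the phosphorylated peptide, bacterial display: peptide library displayed on the E. coli surface as eCPX fusions, selected cells deep-sequenced, score is each peptide's frequency after selection divided by its frequency in the input.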
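Throughout, for phosphorylation enrichment, bacterial display: 11-residue human phosphosite peptides and single-mutation variants displayed on the E. coli surface, counted by deep sequencing, each peptide's frequency after selection divided by its frequency in the unselected input library; frequency after pTyr selection over input frequency; kinase dosed for 20-30% of maximal phosphorylation in three min.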

Sequence of FGFR1 (P11362 whole entry, looked up): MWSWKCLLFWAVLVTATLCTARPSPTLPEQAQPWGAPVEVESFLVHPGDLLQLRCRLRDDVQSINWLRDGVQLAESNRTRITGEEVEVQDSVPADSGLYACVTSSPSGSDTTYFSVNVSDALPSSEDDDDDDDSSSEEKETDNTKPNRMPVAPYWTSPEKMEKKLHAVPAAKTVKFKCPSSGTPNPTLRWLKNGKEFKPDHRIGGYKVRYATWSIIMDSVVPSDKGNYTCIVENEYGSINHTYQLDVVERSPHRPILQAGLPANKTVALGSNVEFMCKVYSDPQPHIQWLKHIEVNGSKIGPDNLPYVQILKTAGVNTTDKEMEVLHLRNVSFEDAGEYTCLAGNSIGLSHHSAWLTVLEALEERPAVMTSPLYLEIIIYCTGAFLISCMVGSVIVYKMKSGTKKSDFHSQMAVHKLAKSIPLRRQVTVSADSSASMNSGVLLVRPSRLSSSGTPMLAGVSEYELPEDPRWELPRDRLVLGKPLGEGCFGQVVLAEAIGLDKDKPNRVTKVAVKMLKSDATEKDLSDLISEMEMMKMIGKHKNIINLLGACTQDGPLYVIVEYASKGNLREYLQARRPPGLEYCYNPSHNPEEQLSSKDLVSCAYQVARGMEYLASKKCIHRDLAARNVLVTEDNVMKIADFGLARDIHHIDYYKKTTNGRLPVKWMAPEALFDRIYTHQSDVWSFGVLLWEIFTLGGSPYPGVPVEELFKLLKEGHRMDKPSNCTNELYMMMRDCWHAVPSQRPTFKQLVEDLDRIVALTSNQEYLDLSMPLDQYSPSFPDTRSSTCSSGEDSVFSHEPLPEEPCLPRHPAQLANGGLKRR
Sequence of EPHB1 (P54762 whole entry, looked up): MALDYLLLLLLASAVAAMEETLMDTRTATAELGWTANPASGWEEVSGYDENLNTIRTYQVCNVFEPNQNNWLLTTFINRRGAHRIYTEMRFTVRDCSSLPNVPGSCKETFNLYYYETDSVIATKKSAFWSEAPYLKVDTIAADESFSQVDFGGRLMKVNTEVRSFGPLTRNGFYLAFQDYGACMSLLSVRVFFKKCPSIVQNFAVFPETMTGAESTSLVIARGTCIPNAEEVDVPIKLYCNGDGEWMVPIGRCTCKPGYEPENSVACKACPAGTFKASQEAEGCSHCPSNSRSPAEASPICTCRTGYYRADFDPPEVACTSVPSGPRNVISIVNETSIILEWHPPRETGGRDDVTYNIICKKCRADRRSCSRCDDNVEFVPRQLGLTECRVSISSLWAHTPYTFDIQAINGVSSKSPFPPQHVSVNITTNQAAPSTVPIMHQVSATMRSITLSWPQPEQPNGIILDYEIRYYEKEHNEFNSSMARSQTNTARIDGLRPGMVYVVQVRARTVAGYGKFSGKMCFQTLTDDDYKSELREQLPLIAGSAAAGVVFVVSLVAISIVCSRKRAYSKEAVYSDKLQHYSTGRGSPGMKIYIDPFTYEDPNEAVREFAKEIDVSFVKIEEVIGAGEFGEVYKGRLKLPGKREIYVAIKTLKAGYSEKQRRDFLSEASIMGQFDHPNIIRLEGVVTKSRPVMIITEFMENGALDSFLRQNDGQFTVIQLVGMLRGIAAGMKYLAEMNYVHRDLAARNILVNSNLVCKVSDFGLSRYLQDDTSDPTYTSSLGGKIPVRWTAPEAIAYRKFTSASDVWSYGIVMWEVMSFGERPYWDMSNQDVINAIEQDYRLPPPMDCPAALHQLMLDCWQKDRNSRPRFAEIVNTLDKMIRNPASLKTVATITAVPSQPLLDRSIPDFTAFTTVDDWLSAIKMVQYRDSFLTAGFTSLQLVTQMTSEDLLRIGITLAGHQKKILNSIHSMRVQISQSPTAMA
Sequence of Jak2 (O60674 whole entry, looked up, the tested form may be a part): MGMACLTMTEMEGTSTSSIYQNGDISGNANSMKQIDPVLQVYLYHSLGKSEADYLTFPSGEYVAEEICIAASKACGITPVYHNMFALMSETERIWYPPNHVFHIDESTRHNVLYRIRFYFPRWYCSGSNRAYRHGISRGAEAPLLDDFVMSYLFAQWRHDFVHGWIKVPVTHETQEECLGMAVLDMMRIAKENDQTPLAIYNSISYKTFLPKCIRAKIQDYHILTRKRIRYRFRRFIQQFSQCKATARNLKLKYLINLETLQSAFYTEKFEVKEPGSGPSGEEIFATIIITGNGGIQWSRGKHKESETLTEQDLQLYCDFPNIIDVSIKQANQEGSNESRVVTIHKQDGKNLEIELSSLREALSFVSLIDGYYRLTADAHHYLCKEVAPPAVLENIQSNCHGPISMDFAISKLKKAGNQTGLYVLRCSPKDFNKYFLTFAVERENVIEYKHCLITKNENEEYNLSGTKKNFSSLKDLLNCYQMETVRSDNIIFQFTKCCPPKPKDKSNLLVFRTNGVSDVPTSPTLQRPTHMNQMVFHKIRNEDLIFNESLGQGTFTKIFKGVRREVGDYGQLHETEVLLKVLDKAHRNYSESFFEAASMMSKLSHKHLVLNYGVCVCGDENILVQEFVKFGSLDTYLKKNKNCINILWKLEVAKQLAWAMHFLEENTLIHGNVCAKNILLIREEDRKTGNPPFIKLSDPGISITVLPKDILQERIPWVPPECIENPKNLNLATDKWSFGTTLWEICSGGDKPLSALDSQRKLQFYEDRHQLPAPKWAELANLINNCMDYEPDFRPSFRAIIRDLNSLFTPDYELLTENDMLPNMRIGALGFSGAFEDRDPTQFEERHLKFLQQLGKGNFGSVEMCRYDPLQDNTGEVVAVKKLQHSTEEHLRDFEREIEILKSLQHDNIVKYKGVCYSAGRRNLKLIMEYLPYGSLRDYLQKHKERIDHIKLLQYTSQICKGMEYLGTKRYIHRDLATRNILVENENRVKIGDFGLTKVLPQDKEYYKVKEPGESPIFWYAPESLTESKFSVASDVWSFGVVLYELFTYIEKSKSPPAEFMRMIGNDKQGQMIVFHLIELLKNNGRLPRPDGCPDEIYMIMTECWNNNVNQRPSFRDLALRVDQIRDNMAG
Sequence of FGFR3 (P22607 whole entry, looked up): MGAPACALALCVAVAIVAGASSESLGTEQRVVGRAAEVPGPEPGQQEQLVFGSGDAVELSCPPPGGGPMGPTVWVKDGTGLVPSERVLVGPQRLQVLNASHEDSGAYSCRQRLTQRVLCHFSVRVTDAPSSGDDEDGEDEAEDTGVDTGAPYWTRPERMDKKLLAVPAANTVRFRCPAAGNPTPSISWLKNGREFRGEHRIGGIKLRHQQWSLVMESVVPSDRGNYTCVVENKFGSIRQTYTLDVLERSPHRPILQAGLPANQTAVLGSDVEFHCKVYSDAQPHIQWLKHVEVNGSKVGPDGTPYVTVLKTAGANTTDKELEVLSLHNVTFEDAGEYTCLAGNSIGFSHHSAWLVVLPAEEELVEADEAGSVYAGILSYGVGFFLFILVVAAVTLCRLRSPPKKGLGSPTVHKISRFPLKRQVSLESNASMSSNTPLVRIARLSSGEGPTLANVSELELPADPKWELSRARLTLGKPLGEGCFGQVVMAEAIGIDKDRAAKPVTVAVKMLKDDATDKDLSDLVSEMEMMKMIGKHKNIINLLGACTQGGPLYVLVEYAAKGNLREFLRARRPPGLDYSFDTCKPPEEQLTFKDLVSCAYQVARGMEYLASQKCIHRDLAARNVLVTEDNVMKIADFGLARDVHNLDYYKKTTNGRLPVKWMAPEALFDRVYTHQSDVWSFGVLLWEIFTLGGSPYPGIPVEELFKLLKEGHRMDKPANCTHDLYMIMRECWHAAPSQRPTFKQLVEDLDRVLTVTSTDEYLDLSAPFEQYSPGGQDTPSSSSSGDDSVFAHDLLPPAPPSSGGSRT
Sequence of MERTK (Q12866 whole entry, looked up): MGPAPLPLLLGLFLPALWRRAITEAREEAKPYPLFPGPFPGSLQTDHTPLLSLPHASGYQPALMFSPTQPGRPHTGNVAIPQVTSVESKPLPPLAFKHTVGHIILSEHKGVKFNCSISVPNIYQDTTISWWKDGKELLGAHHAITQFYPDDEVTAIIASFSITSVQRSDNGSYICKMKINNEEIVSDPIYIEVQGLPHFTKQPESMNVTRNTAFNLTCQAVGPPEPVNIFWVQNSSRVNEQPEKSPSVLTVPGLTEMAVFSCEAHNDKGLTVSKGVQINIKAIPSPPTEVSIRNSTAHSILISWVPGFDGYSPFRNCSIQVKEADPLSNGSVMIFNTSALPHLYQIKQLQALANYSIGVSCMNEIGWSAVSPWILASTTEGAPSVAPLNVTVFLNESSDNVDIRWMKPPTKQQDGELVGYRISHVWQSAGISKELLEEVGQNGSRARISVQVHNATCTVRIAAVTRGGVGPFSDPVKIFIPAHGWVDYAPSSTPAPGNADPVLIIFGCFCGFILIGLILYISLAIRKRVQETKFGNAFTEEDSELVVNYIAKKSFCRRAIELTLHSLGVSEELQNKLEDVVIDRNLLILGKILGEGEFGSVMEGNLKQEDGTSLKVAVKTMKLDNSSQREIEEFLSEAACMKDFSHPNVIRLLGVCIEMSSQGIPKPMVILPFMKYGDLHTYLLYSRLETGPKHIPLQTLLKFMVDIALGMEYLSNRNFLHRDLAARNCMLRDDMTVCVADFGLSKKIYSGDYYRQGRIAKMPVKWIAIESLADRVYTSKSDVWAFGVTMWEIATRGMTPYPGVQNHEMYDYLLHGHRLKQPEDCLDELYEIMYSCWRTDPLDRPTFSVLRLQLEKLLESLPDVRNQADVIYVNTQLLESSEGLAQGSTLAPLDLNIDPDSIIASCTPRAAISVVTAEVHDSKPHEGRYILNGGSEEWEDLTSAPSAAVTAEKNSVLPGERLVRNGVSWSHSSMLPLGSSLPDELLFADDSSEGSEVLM
Sequence of Grb2 SH2 (P62993 whole entry, looked up): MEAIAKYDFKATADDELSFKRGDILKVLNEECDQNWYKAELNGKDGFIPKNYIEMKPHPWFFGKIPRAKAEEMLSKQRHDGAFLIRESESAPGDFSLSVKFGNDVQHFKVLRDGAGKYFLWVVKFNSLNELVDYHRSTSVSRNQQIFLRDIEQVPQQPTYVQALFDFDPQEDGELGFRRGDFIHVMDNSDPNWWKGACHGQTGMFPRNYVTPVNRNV

Sequence | SH2 binding enrichment (SHP2-C SH2) | SH2 binding enrichment (c-Src SH2) | SH2 binding enrichment (Grb2 SH2) | phosphorylation enrichment (Hck) | phosphorylation enrichment (c-Abl (mouse)) | phosphorylation enrichment (c-Src) | phosphorylation enrichment (Fer (mouse)) | phosphorylation enrichment (EPHB2) | phosphorylation enrichment (Fes) | phosphorylation enrichment (MERTK) | phosphorylation enrichment (FGFR3) | phosphorylation enrichment (FGFR1) | phosphorylation enrichment (EPHB1) | phosphorylation enrichment (Fyn) | phosphorylation enrichment (AncSZ) | phosphorylation enrichment (Jak2)
TLQIMYGCDVG [HLA-A_Y123_I119L] | 0.577 | 0.546 | 0.851 | 0.625 | 0.997 | 0.673 | 0.654 | 0.606 | 1.34 | 0.459 | 0.887 | 0.619 | 0.594 | 0.528 | 1.23 | 1.4
TLQRMYGCDVG [HLA-B_Y123_S121R] | 0.454 | 0.493 | 0.851 | 0.501 | 0.816 | 0.554 | 0.542 | 0.665 | 1.14 | 0.545 | 0.771 | 0.5 | 0.535 | 0.568 | 0.857 | 1
TLSGIYQFNIA [FOXL2_Y81_I84N_YF] | 0.971 | 0.742 | 1 | 2.98 | 0.676 | 4.73 | 7.33 | 0.555 | 0.741 | 5.39 | 0.539 | 0.543 | 0.76 | 4.21 | 0.891 | 0.696
TLSGIYQFSIA [FOXL2_Y81_I84S_YF] | 0.836 | 0.533 | 1 | 3.82 | 1.27 | 5.19 | 6.02 | 1.05 | 1.04 | 6 | 0.952 | 0.852 | 1.63 | 5.53 | 1.31 | 0.919
TNDMRYPMKSE [TGDS_Y302] | 0.697 | 0.548 | 0.861 | 0.438 | 0.557 | 0.424 | 0.359 | 0.46 | 0.672 | 0.469 | 0.523 | 0.486 | 0.345 | 0.445 | 0.675 | 0.579
TNFRLYLRSLE [MTM1_Y71_YF] | 0.661 | 0.449 | 0.678 | 0.513 | 0.798 | 0.476 | 0.612 | 0.782 | 1.49 | 0.43 | 0.964 | 0.538 | 0.895 | 0.449 | 1.37 | 1.29
TNITEYCRDLI [RECQL_Y492_K487T] | 0.6 | 0.537 | 0.759 | 0.569 | 0.81 | 0.56 | 0.491 | 0.617 | 1.35 | 0.415 | 0.743 | 0.498 | 0.614 | 0.497 | 1.01 | 1.25
TPGPNYCPGFN [USH2A_Y463_R464C_YF] | 0.645 | 0.632 | 0.987 | 0.333 | 0.643 | 0.944 | 0.557 | 0.254 | 0.643 | 0.507 | 0.35 | 0.515 | 0.499 | 0.578 | 0.334 | 0.662
TPRNTYKMTSL [MKI67_Y849] | 0.891 | 0.805 | 1.36 | 0.395 | 0.496 | 0.459 | 0.443 | 0.545 | 0.512 | 0.428 | 0.445 | 0.386 | 0.323 | 0.475 | 0.477 | 0.477
TPRNTYKMTSV [MKI67_Y849_L854V] | 0.525 | 0.452 | 0.844 | 0.458 | 0.584 | 0.502 | 0.343 | 0.468 | 0.558 | 0.445 | 0.474 | 0.482 | 0.518 | 0.425 | 0.657 | 0.513
TRSYKYLLLSM [NF1_Y491] | 2.46 | 1.15 | 1.64 | 0.422 | 0.852 | 0.494 | 0.434 | 0.69 | 0.832 | 0.485 | 0.624 | 0.433 | 0.754 | 0.477 | 0.833 | 0.887
TSEASYFKSLN [NGEF_Y288_YF] | 0.589 | 0.4 | 0.56 | 0.359 | 0.51 | 0.677 | 0.535 | 0.599 | 0.717 | 0.481 | 0.487 | 0.563 | 0.438 | 0.684 | 0.972 | 0.626
TSIGNYFKPWF [DHCR24_Y299_N294T_YF] | 8.03 | 0.83 | 0.907 | 0.46 | 6.12 | 0.348 | 0.473 | 4.48 | 0.778 | 4.44 | 1.23 | 1.66 | 8.6 | 0.428 | 1.03 | 7.94
TSLAQYDSNSK [BMX_Y216] | 0.622 | 0.438 | 0.826 | 0.428 | 0.543 | 0.479 | 0.37 | 0.568 | 0.736 | 0.444 | 0.443 | 0.525 | 0.352 | 0.344 | 0.622 | 0.579
TSNQEYLDLSM [FGFR1_Y766] | 0.781 | 0.487 | 0.863 | 0.464 | 1.02 | 0.492 | 0.457 | 0.626 | 1.08 | 0.437 | 1.17 | 1.53 | 0.8 | 0.485 | 1.14 | 1.03
TTEHIYGDNFF [UBA7_Y524] | 0.577 | 0.478 | 0.797 | 2.41 | 0.754 | 4.18 | 2.38 | 0.514 | 0.882 | 0.597 | 0.552 | 0.417 | 0.458 | 5.55 | 0.776 | 0.671
TTKAKYKTPIF [PLD2_Y573_T577I_YF] | 1.14 | 0.764 | 1.06 | 0.411 | 0.632 | 0.434 | 0.487 | 0.263 | 0.717 | 0.495 | 0.572 | 0.481 | 0.38 | 0.499 | 0.588 | 0.659

Sequence | SH2 binding enrichment (SHP2-C SH2) | SH2 binding enrichment (c-Src SH2) | SH2 binding enrichment (Grb2 SH2) | phosphorylation enrichment (Hck) | phosphorylation enrichment (c-Abl (mouse)) | phosphorylation enrichment (c-Src) | phosphorylation enrichment (Fer (mouse)) | phosphorylation enrichment (EPHB2) | phosphorylation enrichment (Fes) | phosphorylation enrichment (MERTK) | phosphorylation enrichment (FGFR3) | phosphorylation enrichment (FGFR1) | phosphorylation enrichment (EPHB1) | phosphorylation enrichment (Fyn) | phosphorylation enrichment (AncSZ) | phosphorylation enrichment (Jak2)
TVEDHDFEGGI [TKT_Y563_Y563D_YF] | 0.515 | 0.422 | 0.737 | 0.538 | 0.765 | 0.472 | 0.525 | 0.543 | 1.14 | 0.452 | 0.873 | 0.578 | 0.692 | 0.561 | 1.06 | 1.05
TVLGEYALPKG [CYP24A1_Y407] | 0.429 | 0.572 | 0.707 | 0.565 | 6.83 | 0.39 | 0.404 | 0.542 | 0.621 | 0.585 | 0.562 | 0.45 | 0.58 | 0.491 | 1.15 | 0.592
TYGQVYKGRHV [TNIK_Y40] | 0.964 | 0.676 | 0.974 | 6.44 | 0.711 | 6.62 | 0.528 | 0.506 | 0.488 | 0.942 | 0.533 | 0.493 | 0.507 | 8.37 | 0.484 | 0.482
VDASFYGGRGV [ANTXR2_Y381_YF] | 0.576 | 0.5 | 0.721 | 0.91 | 0.443 | 0.391 | 0.336 | 0.338 | 0.632 | 0.377 | 0.463 | 0.32 | 0.396 | 0.447 | 0.561 | 0.574
VEDQYYRVDCY [FHL1_Y208_C209R] | 0.677 | 0.897 | 0.891 | 0.993 | 0.958 | 1.55 | 0.598 | 0.712 | 1.46 | 0.94 | 6.22 | 7.43 | 0.711 | 0.892 | 2.93 | 1.98
VEKEKYVSYIS [JMJD1C_Y596_M591V] | 0.748 | 0.507 | 0.978 | 0.434 | 0.698 | 0.5 | 0.466 | 0.489 | 0.826 | 0.444 | 0.567 | 0.453 | 0.487 | 0.464 | 0.76 | 0.866
VFAANYFKLLG [ROR2_Y645_D644N_YF] | 0.985 | 1.03 | 0.991 | 0.526 | 0.73 | 0.56 | 0.472 | 0.648 | 1.04 | 1.13 | 1.58 | 2.44 | 0.645 | 0.58 | 0.872 | 5.33
VFAPDFIAGVS [NOB1_Y366_Y366F] | 0.727 | 0.551 | 0.584 | 0.435 | 0.709 | 0.501 | 0.392 | 0.479 | 1.02 | 0.469 | 0.619 | 0.664 | 0.52 | 0.436 | 0.69 | 0.775
VFFGSYSCPFG [NKAP_Y104_R106C_YF] | 0.552 | 0.476 | 0.598 | 0.518 | 1.15 | 0.55 | 0.679 | 0.786 | 1.5 | 0.836 | 0.92 | 0.476 | 0.802 | 0.437 | 1.45 | 1.33
VFSSDYFSFVL [USP24_Y2138_YF] | 0.764 | 0.428 | 0.885 | 1.24 | 1.93 | 4.09 | 0.681 | 1.03 | 1.34 | 1.65 | 6.6 | 8.46 | 1.73 | 2.61 | 2.28 | 4.95
VGTKRYVAPEV [ACVRL1_Y375_M376V] | 0.403 | 0.354 | 0.724 | 0.351 | 0.544 | 0.458 | 0.474 | 0.444 | 0.658 | 0.422 | 0.464 | 0.332 | 0.309 | 0.451 | 0.61 | 0.477
VHSGTYQVTVC [MYBPC3_Y1043_R1048C] | 0.599 | 0.517 | 0.694 | 0.588 | 0.883 | 0.684 | 0.516 | 0.655 | 1.23 | 0.575 | 0.93 | 0.51 | 0.749 | 0.555 | 1.03 | 1.01
VIDGKYAFKPK [GTF2E2_Y137] | 0.602 | 0.451 | 0.873 | 0.412 | 0.585 | 0.328 | 0.276 | 0.304 | 0.457 | 0.323 | 0.329 | 0.348 | 0.264 | 0.348 | 0.413 | 0.421
VIGRMYDYHVL [RPF2_Y109] | 1.71 | 1.93 | 0.927 | 0.538 | 0.65 | 0.643 | 9.05 | 1.7 | 0.859 | 5.17 | 3.7 | 6.62 | 1.33 | 0.504 | 0.966 | 0.976
VIKSSYQVAKA [CPT1B_Y534_E531K] | 0.503 | 0.41 | 0.783 | 0.391 | 0.489 | 0.458 | 0.326 | 0.414 | 0.749 | 0.371 | 0.428 | 0.391 | 0.364 | 0.34 | 0.588 | 0.406
VKPENYRRLDI [VHL_Y175] | 0.769 | 0.459 | 0.879 | 0.331 | 0.345 | 0.324 | 0.305 | 0.324 | 0.48 | 0.337 | 0.463 | 0.615 | 0.58 | 0.351 | 0.473 | 0.298
